The nature of this series: PBS buffer hydrolysis of releasable monoPEGylated chitosan (HPLC, disappearance of starting material). Type of series: physicochemical. Particulars: 25 mM PBS, pH 7.3; 2 mg in 1 mL. As to the method: PBS buffer hydrolysis of releasable monoPEGylated (20 KDa) chitosan (10 KDa): To a solution of 25 mM PBS, pH 7.3, (1 mL) was added the monoPEGylated (20 KDa) chitosan (10 KDa) (2 mg). The solution was filtered through a 0.2 μm filter and analyzed for the disappearance of the PEGylated chitosan starting material on an HPLC system with a flow rate of 0.5 mL/min, gradient (A: 0.1M TEAA, B: 80% ACN and 20% 0.1M TEAA) 15% B 0-4 min, 50% B 8 min, and 58.2% B. The column used was a Zorbax 300SB-C3 3.0×150 mm, […], column.

The values that follow come from US8916693B2, “Monoconjugated chitosans as delivery agents for small interfering nucleic acids” (Nektar Therapeutics, priority 2009, dated 2014).

With “Releasable monoPEGylated (20 KDa) Chitosan (10 KDa)”, the “calculated half-life (hydrolysis, disappearance of the PEGylated chitosan)” value was 7.04 h.
